Kd and stoichiometry N data for one substance are collected here from article PMC13399220.

In test [1] the target is IN CTD mutant (RRKAK to RAAAK) (HIV-1) (UniProt P12497). The test can be described thus: BLI; IN CTD construct (5 uM, acetate buffer pH 5) amine-coupled (EDC/NHS) to carboxyl biosensors, Imp7 in solution at 1-40 000 nM; steady-state analysis; 25 °C; GatorPrime. (In general: BLI is a label-free optical method that tracks binding on a fibre tip over time.)
Test [2] has as its target C-terminal domain of HIV-1 integrase (HIV-1) (UniProt P12497). Described as above.

A word on the Kd: it is a measure of binding affinity in units of concentration. What is called stoichiometry N is the number of molecules, sites or subunits per partner or assembly. “Xenopus laevis importin 7 (natural protein)” registered a Kd in test [1] of 299 nM. In test [2], this substance yielded a Kd of 17.9 nM and a stoichiometry N of 1.
